Reference: paper PMC9437721, “Identification and characterization of two Isatis indigotica O-methyltransferases methylating C-glycosylflavonoids” (Horticulture Research, 2022)

Assays:
[1] = substrate: O=c1cc(-c2ccc(O)c(O)c2)oc2cc(O)cc(O)c12; experiment: O-methyltransferase assay, UPLC, Michaelis-Menten fit; type: biochemical, Isatis tinctoria; conditions: 480 μM SAM, Tris-HCl pH 8.0, 45 °C
Description: (§1) O-methyltransferase assay, UPLC, Michaelis-Menten fit on IiOMT1

[2] = substrate: O=c1cc(-c2ccc(O)c(O)c2)oc2cc(O)c([C@@H]3O[C@H](CO)[C@@H](O)[C@H](O)[C@H]3O)c(O)c12; experiment: as above; type: biochemical, Isatis tinctoria; conditions: 480 μM SAM, Tris-HCl pH 8.0, 45 °C
Description: as §1

B1: IiOMT1 (Isatis tinctoria) (protein)
chain: MATTTTEATKTSTNGEDKQSQNLRHQEVGHKSLLQSDDLYQYILETSVYPREPESMKELREVTAKHPWNIMTTSADEGQFLNMLIKLINAKNTMEIGVYTGYSLLATALALPEDGKILAMDVNRENYELGLPIIEKAGVAHKIDFREGPALPVLDQLVADEKNHGTYDFIFVDADKDNYINYHKRLIDLVKVGGVIGYDNTLWNGSVVAAPDAPMRKYVRYYRDFVLELNKALAADPRIEICMLPVGDGITICRRIN
notes: N-terminal His6-SUMO tag kept (pE-SUMO), E. coli Rosetta (DE3), Ni-NTA
With B1 the Km [1] was 113.5 ± 10.41 µM, the kcat [1] was 0.413 s⁻¹ and the kcat/Km [1] was 3650 M⁻¹ s⁻¹. The Km [2] was 75.56 ± 8.21 µM, the kcat [2] was 0.304 s⁻¹ and the kcat/Km [2] was 4040 M⁻¹ s⁻¹.
